Earlier results, collected in publication PMC7736282.

Biological target: Lys175 (UniProt position 175, VASSLKWRCPF)
Test: NMR

**Q.** For “VP39, cap-specific mRNA (nucleoside-2'-O-)-methyltransferase / poly(A) polymerase small subunit (Vaccinia virus)”, which pKa is on record?
**A.** Its pKa is 8.5.
